The text below walks through data of paper PMC3296735.

A short description of series [1]: total lysate western blot. The note with it: glycan lost. Background: A western blot detects proteins with antibodies after separation by electrophoresis.
Series [2] can be described thus: cell surface ELISA, HA tag, CHO. The following applies: glycan lost. (In general: An ELISA detects its analyte on a solid surface through an enzyme-linked reagent.)
Series [3] is described as follows: cell surface biotinylation, western blot. The note with it: glycan lost.
Series [4] is described as follows: calnexin co-immunolabelling intensity correlation (ER retention). The note with it: glycan lost; control: wild type GIPR.

B1: GLP-1R (GLP1R): N63,82,115Q (protein)
parent chain: MAGAPGPLRLALLLLGMVGRAGPRPQGATVSLWETVQKWREYRRQCQRSLTEDPPPATDLFCNRTFDEYACWPDGEPGSFVNVSCPWYLPWASSVPQGHVYRFCTAEGLWLQKDNSSLPWRDLSECEESKRGERSSPEEQLLFLYIIYTVGYALSFSALVIASAILLGFRHLHCTRNYIHLNLFASFILRALSVFIKDAALKWMYSTAAQQHQWDGLLSYQDSLSCRLVFLLMQYCVAANYYWLLVEGVYLYTLLAFSVLSEQWIFRLYVSIGWGVPLLFVVPWGIVKYLYEDEGCWTRNSNMNYWLIIRLPILFAIGVNFLIFVRVICIVVSKLKANLMCKTDIKCRLAKSTLTLIPLLGTHEVIFAFVMDEHARGTLRFIKLFTELSFTSFQGLMVAILYCFVNNEVQLEFRKSWERWRLEHLHIQRDSSMKPLKCPTSSLSSGATAGSSMYTATCQASCS
For the protein B1, in series [1] (control: wild type GLP-1R-V5), the expression_or_secretion entry is reported as “decreases”. Besides, the localisation_or_trafficking entry in series [2] (control: wild type HA-GLP-1R) and in series [3] (control: wild type GLP-1R-V5) was “decreases” each time.

B2: GIPR (GIP receptor): N62,77Q (protein)
parent chain: MTTSPILQLLLRLSLCGLLLQRAETGSKGQTAGELYQRWERYRRECQETLAAAEPPSGLACNGSFDMYVCWDYAAPNATARASCPWYLPWHHHVAAGFVLRQCGSDGQWGLWRDHTQCENPEKNEAFLDQRLILERLQVMYTVGYSLSLATLLLALLILSLFRRLHCTRNYIHINLFTSFMLRAAAILSRDRLLPRPGPYLGDQALALWNQALAACRTAQIVTQYCVGANYTWLLVEGVYLHSLLVLVGGSEEGHFRYYLLLGWGAPALFVIPWVIVRYLYENTQCWERNEVKAIWWIIRTPILMTILINFLIFIRILGILLSKLRTRQMRCRDYRLRLARSTLTLVPLLGVHEVVFAPVTEEQARGALRFAKLGFEIFLSSFQGFLVSVLYCFINKEVQSEIRRGWHHCRLRRSLGEEQRQLPERAFRALPSGSGPGEVPTSRGLSSGTLPGPGNEASRELESYC
Take B2: in series [1] (control: wild type GIPR-V5), the expression_or_secretion result was “decreases”. Also, the localisation_or_trafficking entry in series [2] (control: wild type HA-GIPR) and in series [3] (control: wild type GIPR-V5) was “abolishes” throughout.

B3: GIPR (GIP receptor): N77Q (protein)
parent chain: MTTSPILQLLLRLSLCGLLLQRAETGSKGQTAGELYQRWERYRRECQETLAAAEPPSGLACNGSFDMYVCWDYAAPNATARASCPWYLPWHHHVAAGFVLRQCGSDGQWGLWRDHTQCENPEKNEAFLDQRLILERLQVMYTVGYSLSLATLLLALLILSLFRRLHCTRNYIHINLFTSFMLRAAAILSRDRLLPRPGPYLGDQALALWNQALAACRTAQIVTQYCVGANYTWLLVEGVYLHSLLVLVGGSEEGHFRYYLLLGWGAPALFVIPWVIVRYLYENTQCWERNEVKAIWWIIRTPILMTILINFLIFIRILGILLSKLRTRQMRCRDYRLRLARSTLTLVPLLGVHEVVFAPVTEEQARGALRFAKLGFEIFLSSFQGFLVSVLYCFINKEVQSEIRRGWHHCRLRRSLGEEQRQLPERAFRALPSGSGPGEVPTSRGLSSGTLPGPGNEASRELESYC
On to B3, for which the localisation_or_trafficking entry in series [2] (control: wild type HA-GIPR) and in series [3] (control: wild type GIPR-V5) was “decreases” in each case.

B4: GIPR (GIP receptor): complete glycosylation-deficient mutant (N62,77Q) (protein)
parent chain: MTTSPILQLLLRLSLCGLLLQRAETGSKGQTAGELYQRWERYRRECQETLAAAEPPSGLACNGSFDMYVCWDYAAPNATARASCPWYLPWHHHVAAGFVLRQCGSDGQWGLWRDHTQCENPEKNEAFLDQRLILERLQVMYTVGYSLSLATLLLALLILSLFRRLHCTRNYIHINLFTSFMLRAAAILSRDRLLPRPGPYLGDQALALWNQALAACRTAQIVTQYCVGANYTWLLVEGVYLHSLLVLVGGSEEGHFRYYLLLGWGAPALFVIPWVIVRYLYENTQCWERNEVKAIWWIIRTPILMTILINFLIFIRILGILLSKLRTRQMRCRDYRLRLARSTLTLVPLLGVHEVVFAPVTEEQARGALRFAKLGFEIFLSSFQGFLVSVLYCFINKEVQSEIRRGWHHCRLRRSLGEEQRQLPERAFRALPSGSGPGEVPTSRGLSSGTLPGPGNEASRELESYC
For B4, the “localisation_or_trafficking, other: Pearson correlation” value in series [4] is “increases, about 80% vs almost no correlation”.
